These results are taken from publication PMC4739766 (eLife, 2015).

For test [1], the target named is human p75^NTR death domain (330–427) (human) (UniProt P08138). Kind of test: SPR; p75NTR DD-His captured on NTA sensor chip via Ni2+; BIAcore T200, 22°C; 10 mM HEPES, 50 mM NaCl, 0.005% Surfactant P20, 0.02% BSA, pH 7.0; kinetic analysis, one binding site model. On the technique in general: SPR reads the build-up and loss of mass on a sensor chip optically.
Test [2] concerns the target RhoA (Homo sapiens) (UniProt P61586). The note with it: cited from earlier work.
The target of test [3] is T1, human p75^NTR death domain (330–427) (human), P08138.
T1 chain: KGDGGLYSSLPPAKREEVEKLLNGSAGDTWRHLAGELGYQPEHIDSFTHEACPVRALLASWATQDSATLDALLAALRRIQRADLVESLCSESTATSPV
Kind of test: dynamic light scattering; p75NTR DD ~0.2 mM in phosphate buffer, pH 7.0, 22°C; apparent hydrodynamic radius. The note with it: remark: other sources report otherwise.

For test [4], the target named is T2, p75^NTR DD tagged with EGFP(A206K) in its C-terminus (human).
T2 chain: T1 chain
Kind of test: FRET or BRET; homo-FRET fluorescence anisotropy of p75NTR DD-EGFP diluted serially in 50 mM phosphate buffer pH 7.0, room temperature; fit to a monomer-dimer equilibrium; apparent; dimer to monomers. The note with it: remark: other sources report otherwise.

The target of test [5] is T3, human RhoGDI (2–204) (human, UniProt P52565 2-204).
T3 construct: 15N- or 13C,15N-labelled in some NMR samples; source: E. coli SoluBL21 (DE3), purified (Ni-NTA, gel filtration Superdex 75 and/or ion exchange)
T3 sequence (looked up): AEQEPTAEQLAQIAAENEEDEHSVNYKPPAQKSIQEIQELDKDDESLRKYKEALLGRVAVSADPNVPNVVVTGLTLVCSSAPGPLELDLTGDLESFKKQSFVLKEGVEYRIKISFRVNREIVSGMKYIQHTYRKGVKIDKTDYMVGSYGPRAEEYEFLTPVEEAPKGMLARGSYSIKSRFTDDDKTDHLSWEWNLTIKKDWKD
Kind of test: SPR; p75NTR DD-His captured on NTA sensor chip via Ni2+; BIAcore T200, 22°C; 10 mM HEPES, 50 mM NaCl, 0.005% Surfactant P20, 0.02% BSA, pH 7.0; kinetic analysis, one binding site model. The note with it: both partners purified.

Test [6] addresses T4, human RIP2 CARD (434–539) (human, UniProt O43353 434-539).
T4 construct: RIP2 kinase, human, caspase recruitment domain with C-terminal tail, residues 434-539; The results speak of a C-terminal tail Leu524-Met540 and of 107 amino acids, the methods of residues 434-539; also called RIP2 CARD (including C-terminal tail); source: E. coli SoluBL21 (DE3), purified (Ni-NTA, gel filtration Superdex 75 and/or ion exchange)
Described as above. The note with it: both partners purified.

As a reminder, the stoichiometry N is a count of units in the complex or per binding partner. In general, koff refers to the rate constant with which the complex falls apart. Lower therefore signals slow dissociation. In general, kon refers to the second-order rate constant of association. A lower kon goes with slower complex formation.

T4 sequence (O43353 434-539): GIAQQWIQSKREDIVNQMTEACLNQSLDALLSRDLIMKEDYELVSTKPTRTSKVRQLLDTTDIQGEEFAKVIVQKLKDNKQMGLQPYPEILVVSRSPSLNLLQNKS
RhoA (Homo sapiens), sequence (P61586 1-190): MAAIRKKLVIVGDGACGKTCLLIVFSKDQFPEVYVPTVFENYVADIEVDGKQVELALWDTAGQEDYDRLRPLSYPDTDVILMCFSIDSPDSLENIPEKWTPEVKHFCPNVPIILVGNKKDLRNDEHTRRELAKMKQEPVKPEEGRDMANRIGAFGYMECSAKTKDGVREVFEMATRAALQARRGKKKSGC

In test [1], “RIP2 CARD ΔC mutant lacking the C-terminal tail (domain or fragment)” returned a Kd of 58.7 nM.
In the case of RhoGDI (from UniProt P52565), in test [2], the Kd was 170 nM.

B1: human p75^NTR death domain (330–427), P08138 330-427 (domain or fragment)
chain: T1 chain
As to B1, the stoichiometry N in test [3] amounted to 2.

B2: p75^NTR DD tagged with EGFP(A206K) in its C-terminus (domain or fragment)
chain: T1 chain
modifications: here or on the partner: C-terminal EGFP(A206K) carrier left out; limits of this fusion are not given, so the paper's own DD construct (330-427) is used / C-terminal EGFP(A206K) carrier left out; limits of this fusion are n
As for B2, the Kd in test [4] is 49000 nM.

B3: human p75^NTR death domain (330–427) (domain or fragment, UniProt P08138 330-427, looked up)
chain: T1 chain
notes: p75 neurotrophin receptor (NGFR, TNFRSF16), human, death domain, residues 330-427; 15N- or 13C,15N-labelled in some NMR samples; Monomer or dimer depending on the buffer; also called p75^NTR DD; DD; source: E. coli SoluBL21 (DE3), purified (Ni-NTA, gel filtration Superdex 75 and/or ion exchange)
In test [5], B3 returned a Kd of 827 ± 338 nM, a dissociation rate constant (koff) of 0.05 s⁻¹ and an association rate constant (kon) of 60000 ± 10000 M⁻¹ s⁻¹. In test [6], this molecule came in with a Kd of 4.67 ± 0.7 nM, a koff of 0.00332 s⁻¹ and a kon of 720000 ± 340000 M⁻¹ s⁻¹.
